Experimental data from patent publication US20240158517A1 (HIFIBIO HK, published 2024).

T1: human CXCR5 (human, UniProt P32302 1-372)
T1 construct: whole, on cells; Always presented on cells; one entry is used for all cell lines; also called hCXCR5; C-X-C chemokine receptor type 5
T1 sequence (looked up): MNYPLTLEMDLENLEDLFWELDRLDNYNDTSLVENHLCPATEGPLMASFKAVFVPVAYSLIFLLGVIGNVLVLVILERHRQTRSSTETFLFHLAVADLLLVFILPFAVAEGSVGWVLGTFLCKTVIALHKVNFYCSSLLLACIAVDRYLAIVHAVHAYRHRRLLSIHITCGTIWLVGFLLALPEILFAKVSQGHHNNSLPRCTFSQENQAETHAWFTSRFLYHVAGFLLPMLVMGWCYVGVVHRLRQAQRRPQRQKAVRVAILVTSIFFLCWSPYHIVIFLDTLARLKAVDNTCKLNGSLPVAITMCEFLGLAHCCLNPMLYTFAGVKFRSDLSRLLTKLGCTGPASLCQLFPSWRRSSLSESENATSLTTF


Molecular target: T1, human CXCR5
Test: flow cytometry on Raji cells, binding percentage, antibody at 1 nM and 0.1 nM
Method: Binding properties of these 36 humanized variants were tested in binding assay to Raji cells at two different concentrations, 1 nM and 0.1 nM.

Binder | binding result
HFB2-VH6VL4 (antibody, V domains shown) VH: QVQLQESGPGLVKPSGTLSLTCAVSGFSLTSYGVSWVRQPPGKGLEWIGVIWGDGSTNYNPSLKSRLTISKDKSKNQVSLKLSSVTAADTAVYYCARVVYWGQGTLVTVSS VL: DIQMTQSPSSLSASVGDRVTITCRSSKSLLHSNGKTYLYWFQQKPGKAPKLLIYRMSNLASGVPSRFSGSGSGTDFTLTISSLQPEDFATYYCMQHLEYPYTFGGGTKVEIK | binds
HFB2-VH10VL4 (antibody, V domains shown) VH: QVQLVQSGAEVKKPGASVKVSCKASGFSLTSYGVSWVRQAPGQGLEWMGVIWGDGSTNYAQKLQGRVTMTKDTSTSTAYMELRSLRSDDTAVYYCARVVYWGQGTLVTVSS VL: DIQMTQSPSSLSASVGDRVTITCRSSKSLLHSNGKTYLYWFQQKPGKAPKLLIYRMSNLASGVPSRFSGSGSGTDFTLTISSLQPEDFATYYCMQHLEYPYTFGGGTKVEIK | binds
HFB2-VH8VL4 (antibody, V domains shown) VH: QVQLVESGGGVVQPGRSLRLSCAVSGFSLTSYGVSWVRQAPGKGLEWLGVIWGDGSTNYHSGLISRLTISKDNSKNTVYLQMNSLRAEDTAVYYCARVVYWGQGTLVTVSS VL: DIQMTQSPSSLSASVGDRVTITCRSSKSLLHSNGKTYLYWFQQKPGKAPKLLIYRMSNLASGVPSRFSGSGSGTDFTLTISSLQPEDFATYYCMQHLEYPYTFGGGTKVEIK | binds
HFB2-VH6VL7 (antibody, V domains shown) VH: QVQLQESGPGLVKPSGTLSLTCAVSGFSLTSYGVSWVRQPPGKGLEWIGVIWGDGSTNYNPSLKSRLTISKDKSKNQVSLKLSSVTAADTAVYYCARVVYWGQGTLVTVSS VL: DIVMTQSPDSLAVSLGERATINCRSSKSLLHSNGKTYLYWFQQKPGQSPKLLLYRMSNLASGVPDRFSGSGSGTDFTLTISSLQAEDVAVYYCMQHLEYPYTFGQGTKLEIK | binds
HFB2-VH8VL6 (antibody, V domains shown) VH: QVQLVESGGGVVQPGRSLRLSCAVSGFSLTSYGVSWVRQAPGKGLEWLGVIWGDGSTNYHSGLISRLTISKDNSKNTVYLQMNSLRAEDTAVYYCARVVYWGQGTLVTVSS VL: EIVMTQSPATLSVSPGERATLSCRSSKSLLHSNGKTYLYWFQQKPGQAPRLLIYRMSNLASGIPARFSGSGSGTEFTLTISSVQSEDVAVYYCMQHLEYPYTFGQGTKLEIK | binds
HFB2-4hz41hG1 (antibody, V domains shown, Humanized, human IgG1 (hG1); also called HFB2-VH8VL7) VH: QVQLVESGGGVVQPGRSLRLSCAVSGFSLTSYGVSWVRQAPGKGLEWLGVIWGDGSTNYHSGLISRLTISKDNSKNTVYLQMNSLRAEDTAVYYCARVVYWGQGTLVTVSS VL: DIVMTQSPDSLAVSLGERATINCRSSKSLLHSNGKTYLYWFQQKPGQSPKLLLYRMSNLASGVPDRFSGSGSGTDFTLTISSLQAEDVAVYYCMQHLEYPYTFGQGTKLEIK | binds
HFB2-VH10VL7 (antibody, V domains shown) VH: QVQLVQSGAEVKKPGASVKVSCKASGFSLTSYGVSWVRQAPGQGLEWMGVIWGDGSTNYAQKLQGRVTMTKDTSTSTAYMELRSLRSDDTAVYYCARVVYWGQGTLVTVSS VL: DIVMTQSPDSLAVSLGERATINCRSSKSLLHSNGKTYLYWFQQKPGQSPKLLLYRMSNLASGVPDRFSGSGSGTDFTLTISSLQAEDVAVYYCMQHLEYPYTFGQGTKLEIK | binds
